Test results: patent publication US20180094062A1 (Hoffmann-La Roche, published 2018)

T1: TtSlyDcas
T1 construct: negative control scaffold without the HER3 β-hairpin
T1 chain: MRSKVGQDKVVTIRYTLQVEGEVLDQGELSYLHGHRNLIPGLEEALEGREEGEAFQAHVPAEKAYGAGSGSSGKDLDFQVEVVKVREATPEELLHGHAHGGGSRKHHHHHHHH

T2: TtSlyDcas-Her3
T2 chain: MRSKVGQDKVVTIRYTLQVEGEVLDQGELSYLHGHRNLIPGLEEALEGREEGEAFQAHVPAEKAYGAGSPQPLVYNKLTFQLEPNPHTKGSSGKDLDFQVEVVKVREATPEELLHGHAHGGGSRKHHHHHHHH

T3: TgSlyDcys-Her3
T3 chain: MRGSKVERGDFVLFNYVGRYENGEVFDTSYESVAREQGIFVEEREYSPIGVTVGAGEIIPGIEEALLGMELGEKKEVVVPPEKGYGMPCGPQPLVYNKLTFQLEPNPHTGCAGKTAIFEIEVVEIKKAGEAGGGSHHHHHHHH

T4: human recombinant HER4 Extracellular Domain (HER4 ECD) (human, UniProt Q15303 26-651)
T4 sequence: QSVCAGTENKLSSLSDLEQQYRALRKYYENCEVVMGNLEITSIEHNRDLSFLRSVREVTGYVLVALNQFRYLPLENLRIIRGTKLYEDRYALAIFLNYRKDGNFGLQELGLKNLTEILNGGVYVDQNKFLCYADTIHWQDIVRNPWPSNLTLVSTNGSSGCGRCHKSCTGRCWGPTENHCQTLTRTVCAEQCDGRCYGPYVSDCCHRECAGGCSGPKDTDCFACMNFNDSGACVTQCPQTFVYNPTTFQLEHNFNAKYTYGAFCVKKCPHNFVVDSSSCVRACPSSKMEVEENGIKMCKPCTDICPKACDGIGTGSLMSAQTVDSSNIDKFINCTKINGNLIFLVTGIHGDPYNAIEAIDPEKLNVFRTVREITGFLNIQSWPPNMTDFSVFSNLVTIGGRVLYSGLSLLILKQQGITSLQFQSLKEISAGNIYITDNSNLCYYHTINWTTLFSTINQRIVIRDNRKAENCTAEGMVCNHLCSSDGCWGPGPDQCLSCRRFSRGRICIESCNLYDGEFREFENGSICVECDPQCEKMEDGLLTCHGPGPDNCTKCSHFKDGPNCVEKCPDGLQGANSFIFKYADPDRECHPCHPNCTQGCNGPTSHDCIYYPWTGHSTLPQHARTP

T5: TgSlyDΔIF
T5 construct: negative control scaffold without insert (Thermococcus gammatolerans SlyD); also called TgSlyDAIF
T5 chain: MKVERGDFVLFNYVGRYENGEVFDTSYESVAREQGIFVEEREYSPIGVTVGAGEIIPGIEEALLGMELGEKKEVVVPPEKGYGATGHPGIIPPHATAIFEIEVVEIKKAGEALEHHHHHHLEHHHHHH

T6: TgSlyDser-Her3
T6 chain: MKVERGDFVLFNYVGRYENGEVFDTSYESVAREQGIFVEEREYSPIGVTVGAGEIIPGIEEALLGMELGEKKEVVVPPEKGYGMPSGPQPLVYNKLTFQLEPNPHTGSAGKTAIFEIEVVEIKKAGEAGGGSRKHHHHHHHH


How the values were obtained:
[1] = target: T7, HER3 ECD-HRG complex (Heregulin-activated Her-3 ECD) (human, UniProt P21860 20-643); test: SPR Biacore T200, antibody captured, 25 C
T7 construct: receptor-ligand complex made by preincubating HER3 ECD with a five-fold molar excess of Heregulin; also called Heregulin/Her-3 ECD; Heregulin-complexed Her-3 ECD
Experimental: (§1) A Biacore T200 instrument (GE Healthcare) was mounted with a CM5 series sensor. The sensor was normalized in HBS-ET buffer (10 mM HEPES pH 7.4, 150 mM NaCl, 3 mM EDTA, 0.05% w/v Tween 20) according to the manufacturer's instructions. The sample buffer was the system buffer supplemented with 1 mg/ml CMD (Carboxymethyldextran, Sigma #86524). The system operated at 25° C. 6500 RU RAM-Fcγ (relative units of Fcγ-fragment RamlgG, GE Healthcare) were immobilized according to the manufacturer's instructions using amine coupling EDC/NHS chemistry on all four flow cells. The sensor was deactivated using 1M ethanolamine. […] Concentration dependent kinetics were measured. […] All analytes were injected for 5 min association time and 10 min dissociation time at 100 μl/min flow rate. The sensor capture system was regenerated by a 3 min injection at 10 μl/min of 10 mM glycine pH 1.7. Where possible kinetic data was evaluated using the Biacore T200 evaluation software.

TtSlyDcas [2] = target: T1, TtSlyDcas; test: SPR Biacore T200, antibody captured, 25 C
Experimental: as §1

[3] = target: T8, human recombinant HER3 Extracellular Domain (HER3 ECD) (human, UniProt P21860 20-643); test: SPR Biacore T200, antibody captured, 25 C
T8 construct: 68 kDa; also called human-Her3-ECD
Experimental: as §1

TtSlyDcas-Her3 = target: T2, TtSlyDcas-Her3; test: ELISA, antigen coated, hybridoma supernatant
Experimental: (§2) For the ELISA screening an antigen down format was used. […] Hybridoma Supernatant was added to the plates and incubated for 1 h at room temperature. Bound antibody was detected with a HRP-labeled F(ab′)₂ goat anti-mouse Fcγ (Dianova) and ABTS (Roche) was used as a HRP-substrate.
(§3) As negative controls the scaffold proteins TtSlyDcas and TgSlyDΔIF were used.

[4] = target: human HER2 Extracellular Domain (HER2 ECD) (human, UniProt P04626 23-652); test: ELISA, antigen coated, hybridoma supernatant
Experimental: as §2, §3

TgSlyDcys-Her3 = target: T3, TgSlyDcys-Her3; test: ELISA, antigen coated, hybridoma supernatant
Experimental: as §2, §3

[5] = target: T4, human recombinant HER4 Extracellular …; test: ELISA, antigen coated, hybridoma supernatant
Experimental: as §2, §3

[6] = target: T9, human HER1 Extracellular Domain (HER1 ECD) (human, UniProt P00533 25-645); test: ELISA, antigen coated, hybridoma supernatant
T9 construct: also called EGFR ECD
Experimental: as §2, §3

TtSlyDcas [7] = target: T1, TtSlyDcas; test: ELISA, antigen coated, hybridoma supernatant
Experimental: as §2, §3

TgSlyDΔIF = target: T5, TgSlyDΔIF; test: ELISA, antigen coated, hybridoma supernatant
Experimental: as §2, §3

[8] = target: T8, human recombinant HER3 Extracellular …; test: ELISA, antigen coated, hybridoma supernatant
Experimental: as §2, §3

TgSlyDser-Her3 = target: T6, TgSlyDser-Her3; test: ELISA, antigen coated, hybridoma supernatant
Experimental: as §2, §3

Row | Binder | MR (Molar Ratio) [1] | MR (Molar Ratio) (TtSlyDcas [2]) | binding result (TtSlyDcas [2]) | Kd [3] [nM] | MR (Molar Ratio) [3] | koff [3] [s⁻¹] | kon [3] [M⁻¹ s⁻¹] | OD 405 nm (TtSlyDcas-Her3) [OD] | OD 405 nm [4] [OD] | binding result [4] | OD 405 nm (TgSlyDcys-Her3) [OD] | OD 405 nm [5] [OD] | binding result [5] | OD 405 nm [6] [OD] | binding result [6] | OD 405 nm (TtSlyDcas [7]) [OD] | OD 405 nm (TgSlyDΔIF) [OD] | OD 405 nm [8] [OD] | OD 405 nm (TgSlyDser-Her3) [OD]
1 | anti-HER3 antibody M-08-11 (antibody, V domains shown, mouse monoclonal antibody from hybridoma, tested as hybridoma supernatant or as antibody; also called M-011) VH: QAYLQQSGAELMRPGASVRMSCQASGYTFTSYTIHWLKQTPRQGLEWIGAIYPRNGDFSYNQKFKDKASLTVDTSSSTAYMHLSSLTSEDSAVYFCARTINYGDWFAYWGQGTLVTVSA VL: DIQMIQSPASLFVSEGETVIITCRASENIYSNLAWYHQKKGKSPQVLVYAAIKLADGVPLRFSGSGSGTQFSLKINSLQSEDFGSYYCQHFWGPPYTFGSGTNLEIK | 0.7 | 0 | no binding (tested: 90 nM) | 3.5 | 0.1 | 0.00037 | 110000 | 3.2 | 0.025 | no binding | 3.26 | 0.024 | no binding | 0.06 | no binding | 0.038 | 0.035 | 3.15 | 3.11
2 | anti-HER3 antibody M-46-01 (antibody, V domains shown, mouse hybridoma clone) VH: QIQLQQSGPQLVRPGASVKISCKASGYSFTSYWMHWVKQRPGRGLEWIGMIDPSDGVTRLNQKFKDKATLTVDNSSSTAYMQLSSPTSEDSAVHYCARVDVLYWYFDVWGAGTTVTVSS VL: DIVLTQSPASLAVSLGQRATISCRASKSISISGYSYMHWYQQKAGQPPKLLIYLTSNLESGVPARFSGSGSGTDFTLNIHPVEEEDAATYYCHHSRELPFTFGSGTKLEIK | 0.9 | 0 | no binding (tested: 90 nM) | 3.8 | 0.2 | 0.0004 | 100000 | 2.56 | 0.04 | no binding |  | 0.032 | no binding | 0.043 | no binding | 0.038 |  | 1.35 | 
3 | anti-HER3 antibody M-17-02 (antibody, V domains shown, mouse hybridoma clone) VH: EVQLQQSGTVLARPGASVKMSCKASGYSFTSYWIHWVKQRPGQGLEWIGAIYPGNSDTTYNQKFKGKAKLTAVTSASTAYMELSSLTNEDSAVYYCARTGVWTSYYFDYWGQGTTLTVSS VL: DIQMTQSPASLSASVGETVTITCRASENIYSNLAWYQQKQGKSPQLLVYAATNLADGVPSRFSGSGSGTQFSLRINSLQPEDFGSYYCQHFYGTPFTFGTGTKLEIK |  |  |  |  |  |  |  | 1.53 | 0.03 | no binding | 1.53 | 0.025 | no binding | 0.028 | no binding | 0.023 | 0.026 | 2.96 | 1.57
4 | anti-HER3 antibody M-43-01 (antibody, V domains shown, mouse hybridoma clone) VH: EVQLQQSGTVLARPGASVKMSCKASDYTFSNYWVHWVKQRPGQGLEWIGAIYPGNGDSTYYQKFKGKATLTAVTSTSTAYMDLSSLTNGDSAVYFCTRSGVGYNYYFDYWGQGTTLTVSS VL: DIQMTQSPASLSASVGETVTITCRASENIYSNLAWYQQKQGKSPQLLVYIATNLADGVPSRFSGSGSGTQFSLKINSLQPEDLGSYYCQHFYGTPFTFGTGTKLEIE | 0.3 | 0 | no binding (tested: 90 nM) | 5.2 | 0.1 | 0.00055 | 110000 | 3.27 | 0.045 | no binding | 3.15 | 0.04 | no binding | 0.043 | no binding | 0.018 | 0.038 | 1.44 | 3.44
